{
  "source": "patent US8598315B2",
  "about": "“Protein transduction domains derived from secretory leukocyte protease inhibitor” (Research Foundation of City University of New York, priority 2007, dated 2013)",
  "key": {"[1]": {"test_system": "Chinese hamster ovary (CHO) cells", "assay": "Presence in the underlying CHO cell monolayer at 4° C.", "format": "cell-based", "settings": "10 μg/ml, 4 hours", "method": "(§1) For these experiments, monolayers of Chinese hamster ovary (CHO) cells were prepared by plating 75,000 cells into the wells of 8-well chamber slides coated with 20 μg/ml PDL and 10 μg/ml fibronectin (Mukhopadhyay et al., 1994, supra). These cells were incubated overnight at 37° C. to allow the monolayers to form. P6 DRG neurons were then isolated, plated on the monolayers in SATO culture medium, and incubated for an additional 16 hours. This approach was used because of the harsh conditions used in these experiments. Neurons would likely fail to adhere to the slides if plated directly onto PDL and incubated at 4° C., and so, we enhanced adhesion by plating the neurons on CHO cell monolayers and allowing them to extend neurites. Cold SATO culture medium was supplemented with 10 μg/ml penetratin, fSLPI, or SLPI11-25 and added to the wells containing the neurons. The slides were then covered and incubated at 4° C. for 4 hours. Cells were then fixed and immunostained for βIII tubulin as described."}, "DRG neurons [2]": {"test_system": "DRG neurons", "assay": "Internalization at 4° C. by DRG neurons plated on CHO cell monolayers", "format": "cell-based", "settings": "P6 DRG neurons, 10 μg/ml, 4 hours", "method": "as §1"}, "[3]": {"assay": "Blood brain barrier crossing after intraperitoneal injection", "format": "in vivo, 129SI/SV1MJ mice", "settings": "mice, intraperitoneal 100 μg", "method": "To assess whether SLPI crosses the blood brain barrier, adult 129SI/SV1MJ mice received intraperitoneal injections of 100 μg fSLPI in sterile PBS or unconjugated fluorescein (500 μl total volume). Mice were sacrificed by transcardial perfusion with 4% paraformaldehyde after 4 and 8 hours. The brains and cervical spinal cords were dissected out and prepared for sectioning as described. Tissues were sectioned coronally at 30 μm and slides were coverslipped as described. […] This may be an inherent property of SLPI or may be secondary to its observed efficient cellular internalization which may in turn prevent SLPI from ever reaching the CNS in high enough concentrations to be detected.\nTo assess whether SLPI11-25 crosses the blood brain barrier, 129SI/SV1MJ mice received intraperitoneal injections of 100 μg SLPI11-25 or penetratin in sterile PBS ([…]). Mice were sacrificed after 1 and 4 hours, and the brains and cervical spinal cords were prepared for sectioning as described. Tissues were sectioned coronally at 30 μm and slides were coverslipped as described. […] This may be an inherent property of SLPI-derived PTDs, or may be secondary to its observed efficient cellular internalization, which may in turn prevent the SLPI-derived PTD from ever reaching the CNS in high enough concentrations to be detected."}, "DRG neurons [4]": {"test_system": "DRG neurons", "assay": "Internalization of fluorescein-labeled SLPI/peptides by DRG neurons at 37° C. (fluorescence microscopy)", "format": "cell-based", "settings": "for internalization / presence in nuclei of DRG neurons: P6 DRG neurons, 5 μg/ml, 15 minutes", "method": "To visualize internalization of SLPI in living cells, SLPI was labeled with fluorescein using a Fluorescein-EX protein labeling kit (Molecular Probes). The labeling reaction was performed following the protocol provided by the manufacturer. P5 DRG neurons were isolated (Mukhopadhyay et al., 1994; DeBellard et al., 1996; Cai et al., 1999; supra) and treated with either 10 μg/ml of fluorescein-labeled SLPI (fSLPI) or unconjugated fluorescein in SATO culture medium. Cells were then plated in 8 well chamber slides coated with 100 μg/ml poly-D-lysine (PDL) and incubated for 1 hour at 37° C. Cells were then fixed with 4% paraformaldehyde and immunostained using a monoclonal antibody to the neuronal marker βIII tubulin (1:1000 dilution, Covance). After an overnight incubation at 4° C., the cells were rinse and incubated successively with biotinylated anti-mouse antibody (1:500 dilution, Amersham) and Texas Red-conjugated streptavidin (1:300 dilution, Amersham). Slides were then coverslipped and viewed using an upright fluorescence microscope.\nTo further characterize SLPI internalization into living cells, P5 DRG neurons in SATO culture medium were treated with unconjugated fluorescein, 1 μg/ml fSLPI, or 10 μg/ml fSLPI and plated onto PDL-coated slides for 5 minutes at 37° C. Cells were then fixed and immunostained for βIII tubulin as described.\nThe transduction characteristics of a SLPI-derived PTD comprising amino acids 11-25 of human SLPI (SLPI11-25) were compared to those of the SLPI protein. SLPI11-25 and penetratin were custom synthesized and labeled with fluorescein at the C-terminus by Invitrogen. P6 DRG neurons were isolated and treated with unconjugated fluorescein, 5 μg/ml fSLPI, 5 μg/ml SLPI11-25, or 5 μg/ml penetratin in SATO culture medium. Cells were plated onto PDL-coated slides and incubated for 15 minutes at 37° C. Cells were then fixed and immunostained for βIII tubulin as described."}, "[5]": {"test_system": "retinal ganglion cell layer of the retina", "assay": "Internalization in vivo after injection into the vitreous chamber of the eye", "settings": "adult rats, 5 μl of 1 μg/μl into vitreous chamber, 4 hours", "description": "To analyze the transduction characteristics of SLPI in vivo, fSLPI was injected into the eyes of adult rats. Long-Evans rats (200-250 g) were anesthetized with 2.5% isofluorane and 5 μl of fSLPI (1 μg/μl) or unconjugated fluorescein was injected into the vitreous chamber of the right eye using a glass micropipette (1 μm diameter) attached to a microsyringe pump. 4 hours later, the animals were sacrificed by transcardial perfusion with 4% paraformaldehyde. Following removal of the cornea and lens, the eyes were dissected out and post-fixed in 4% paraformaldehyde for 48 hours. Tissues were then cryoprotected in 30% sucrose in phosphate-buffered saline (PBS) for an additional 48 hours. Tissues were sectioned sagitally at 30 μm on a cryostat and thaw-mounted onto gelatin-coated slides."}, "[6]": {"test_system": "retinal ganglion cell layer of the retina", "assay": "SLPI-derived PTD injected into adult eye (Example 8, expected result)", "settings": "adult rats, injected into the eyes, 4 hours", "description": "To analyze the transduction characteristics of SLPI11-25 in vivo, fSLPI11-25 is injected into the eyes of adult rats."}, "cerebellar neurons": {"test_system": "cerebellar neurons", "assay": "Western blot of cytoplasmic and nuclear fractions of treated cerebellar neurons", "format": "cell-based, rats", "settings": "0, 1, 5, and 10 μg/ml, 1 hour, 37° C.", "method": "FIG. 1: Western blot analysis of cytoplasmic and nuclear fractions from cerebellar neurons treated with 0, 1, 5, and 10 μg/ml SLPI for 1 hour. Higher levels of SLPI are observed in both cytoplasmic and nuclear fractions with increasing concentrations of SLPI. Phospho-CREB is used as a nuclear marker and actin is used as a loading control. See Example 1.\nTo characterize the transduction abilities of the SLPI protein, cerebellar neurons were isolated from postnatal day 6 (P6) rats (Mukhopadhyay et al., Neuron 13:757-767 (1994); DeBellard et al., Mol. Cell. Neurosci. 7:89-101 (1996); Cai et al., Neuron 22:89-101 (1999)) and treated with 0, 1, 5, and 10 μg/ml recombinant human SLPI (R&D Systems) in SATO culture medium (Doherty et al., Neuron 5:209-219 (1990); Nature 343:464-466 (1990)). Cells were incubated at 37° C. for 1 hour, and cytoplasmic and nuclear fractions were prepared using NE-PER cytoplasmic and nuclear extraction reagents (Pierce). Protein samples were subjected to SDS-PAGE using 15% SDS polyacrylamide gels and transferred to nitrocellulose. SLPI was detected using a polyclonal antibody to recombinant human SLPI (R&D Systems). […] The nuclear localization of SLPI was then confirmed by reprobing the membrane for a well-known nuclear marker: phosphorylated cyclic AMP response element binding protein (pCREB; Cell Signaling). […]"}},
  "note": "Ends that are not written are not given here.",
  "data": [
    {"molecule": "SLPI11-25: SLPI-derived PTD, amino acids 11-25 of human SLPI (PPKKSAQCLRYKKPE, SEQ ID NO: 2), labeled with fluorescein at the C-terminus (PPKKSAQCLRYKKPE-fluorescein; listed as Homo sapiens)", "values": [
      {"measurement": "present in the underlying CHO cell monolayer", "setting": "[1]", "result": "not"},
      {"measurement": "nuclear localization at the restrictive temperature", "setting": "DRG neurons [2]", "result": "still occurred at the restrictive temperature"},
      {"measurement": "observed in the brain and spinal cord", "setting": "[3]; 1 and 4 hours", "result": "No SLPI11-25 was observed in the brain and spinal cord at either time point"},
      {"measurement": "internalization / presence in nuclei of DRG neurons", "setting": "DRG neurons [4]", "result": "present in the nuclei of DRG neurons"}
    ]},
    {"molecule": "O=C1OC2(c3ccc(O)cc3Oc3cc(O)ccc32)c2ccccc21", "note": "[fluorescein]", "values": [
      {"measurement": "presence in the retinal ganglion cell layer of the retina", "setting": "[5]", "result": "no signal was observed"},
      {"measurement": "presence in the retinal ganglion cell layer of the retina", "setting": "[6]", "result": "no signal is observed"}
    ]},
    {"molecule": "SLPI: recombinant human secretory leukocyte protease inhibitor (R&D Systems), 107 amino acid polypeptide, SEQ ID NO: 1 (protein, listed as Homo sapiens) SGKSFKAGVCPPKKSAQCLRYKKPECQSDWQCPGKKRCCPDTCGIKCLDPVDTPNPTRRKPGKCPVTYGQCLMLNPPNFCEMDGQCKRDLKCCMGMCGKSCVSPVKA", "values": [
      {"measurement": "SLPI in cytoplasmic and nuclear fractions", "setting": "cerebellar neurons", "result": "present in increasing amounts in both the cytoplasmic and nuclear fractions"}
    ]},
    {"molecule": "fSLPI: SLPI labeled with fluorescein using a Fluorescein-EX protein labeling kit (protein, UniProt P03973 26-132, looked up, fluorescein label, SLPI labeled with fluorescein using a Fluorescein-EX protein labeling kit) Antileukoproteinase: SGKSFKAGVCPPKKSAQCLRYKKPECQSDWQCPGKKRCCPDTCGIKCLDPVDTPNPTRRKPGKCPVTYGQCLMLNPPNFCEMDGQCKRDLKCCMGMCGKSCVSPVKA", "values": [
      {"measurement": "present in the underlying CHO cell monolayer", "setting": "[1]", "result": "not"},
      {"measurement": "nuclear localization at the restrictive temperature", "setting": "DRG neurons [2]", "result": "still occurred at the restrictive temperature"},
      {"measurement": "observed in the brain and spinal cord", "setting": "[3]; 4 and 8 hours", "result": "No fSLPI was observed in the brain and spinal cord at either time point"},
      {"measurement": "internalization into nuclei", "setting": "DRG neurons [4]; P5 DRG neurons, 1 μg/ml or 10 μg/ml, 5 minutes", "result": "internalized into nuclei within 5 minutes in a dose-dependent manner"},
      {"measurement": "internalization / presence in nuclei of neurons", "setting": "DRG neurons [4]; P5 DRG neurons, 10 μg/ml, 1 hour", "result": "clearly present in the nuclei of neurons"},
      {"measurement": "internalization / presence in nuclei of DRG neurons", "setting": "DRG neurons [4]", "result": "present in the nuclei of DRG neurons"}
    ]}
  ]
}
